Data set [1] has as its target BPV-1 E1 helicase domain F464A (bovine papillomavirus type 1 (BPV-1)). In words: SEC. For orientation: SEC sorts molecules by how far they enter the pores of the column.
Data set [2] addresses BPV-1 E1 helicase domain W465F (bovine papillomavirus type 1 (BPV-1)). In words: SEC.
For data set [3], the target named is BPV-1 E1 helicase domain K506A (bovine papillomavirus type 1 (BPV-1)). In words: SEC.
The target in data set [4] is BPV-1 E1 helicase domain R505E (bovine papillomavirus type 1 (BPV-1)). In words: SEC.
The target of data set [5] is BPV-1 E1 helicase domain F464W (bovine papillomavirus type 1 (BPV-1)). As to the kind of experiment: SEC.
Data set [6] addresses BPV-1 E1 helicase domain, wild type (bovine papillomavirus type 1 (BPV-1)). In words: SEC.
The target of data set [7] is BPV-1 E1 helicase domain H507A (bovine papillomavirus type 1 (BPV-1)). As to the kind of experiment: SEC.
The target in another data set is E1HD wild-type (Bovine papillomavirus 1 (BPV-1), UniProt P03116 299-605). As to the kind of experiment: EMSA.

This is an account of results in publication PMC1474052.

What is called stoichiometry N is a count of units in the complex or per binding partner. With “BPV-1 E1 helicase domain F464A (domain or fragment)”, the stoichiometry N in data set [1] was 6.

Molecule “BPV-1 E1 helicase domain W465F (domain or fragment)” had a stoichiometry N in data set [2] of 6. Turning to “BPV-1 E1 helicase domain K506A (domain or fragment)”, the stoichiometry N in data set [3] was 6. In data set [4], “BPV-1 E1 helicase domain R505E (domain or fragment)” registered a stoichiometry N of 6. “BPV-1 E1 helicase domain F464W (domain or fragment)” yielded a stoichiometry N in data set [5] of 6. Molecule “BPV-1 E1 helicase domain, wild type (domain or fragment)” returned a stoichiometry N in data set [6] of 6. The molecule “BPV-1 E1 helicase domain H507A (domain or fragment)” showed a stoichiometry N in data set [7] of 6. Consider TGCTCTAGAATGCAAACTACTCTGAACGAG (ssDNA) [30mer ssDNA], for which the binding result with E1HD wild-type was “binds”.
